Experimental data from the Immune Epitope Database (IEDB).

Tests used:
HLA-B*44:02 = assay: IEDB peptide-MHC binding, purified MHC/competitive/radioactivity; filed as Kd, often an IC50 or EC50 that approximates it; ≥ and ≤ were set here for values at or beyond the usual limits of such assays
HLA-B*44:03 = assay: as above
HLA-A*24:02 = assay: IEDB peptide-MHC binding, purified MHC/competitive/fluorescence; ≥ and ≤ were set here for values at or beyond the usual limits of such assays
HLA-B*53:01 = assay: IEDB peptide-MHC binding, purified MHC/competitive/radioactivity; filed as Kd, often an IC50 or EC50 that approximates it; ≥ and ≤ were set here for values at or beyond the usual limits of such assays
HLA-A*68:02 = assay: as above
HLA-B*15:03 = assay: as above
HLA-B*07:02 = assay: as above
HLA-B*40:01 = assay: as above
HLA-A*02:06 = assay: as above
HLA-A*02:03 = assay: as above
HLA-A*02:01 = assay: IEDB peptide-MHC binding, purified MHC/competitive/fluorescence; ≥ and ≤ were set here for values at or beyond the usual limits of such assays; conditions: source organism: Zaire ebolavirus
HLA-B*51:01 [1] = assay: IEDB peptide-MHC binding, purified MHC/competitive/fluorescence; filed as Kd, often an IC50 or EC50 that approximates it; ≥ and ≤ were set here for values at or beyond the usual limits of such assays; conditions: source organism: Entamoeba histolytica HM-1:IMSS
HLA-B*15:01 = assay: as above; conditions: source organism: Yersinia pestis
HLA-A*24:03 = assay: IEDB peptide-MHC binding, purified MHC/direct/fluorescence; filed as Kd, often an IC50 or EC50 that approximates it; ≥ and ≤ were set here for values at or beyond the usual limits of such assays; conditions: source organism: Vibrio parahaemolyticus
HLA-A*32:01 = assay: IEDB peptide-MHC binding, purified MHC/competitive/radioactivity; filed as Kd, often an IC50 or EC50 that approximates it; ≥ and ≤ were set here for values at or beyond the usual limits of such assays; conditions: source organism: Dengue virus 4 Singapore/8976/1995
HLA-B*51:01 [2] = assay: as above
HLA-A*02:02 = assay: as above; conditions: source organism: Lassa virus Josiah
[3] = source organism: Dengue virus 2 Jamaica/1409/1983
[4] = source organism: Vaccinia virus WR
[5] = source organism: Dengue virus 1 Singapore/S275/1990
[6] = source organism: Dengue virus 4 Philippines/H241/1956
[7] = source organism: Dengue virus 1 Brazil/97-11/1997
[8] = source organism: Zaire ebolavirus
[9] = source organism: Sudan ebolavirus
[10] = source organism: Dengue virus 3 Sri Lanka/1266/2000
[11] = source organism: Dengue virus 4 Dominica/814669/1981
[12] = source organism: Dengue virus 3 Martinique/1243/1999
[13] = source organism: Lassa virus Josiah

## LENDEDCAHW
HLA-B*44:02; [3]
  Kd: 103 nM
HLA-B*44:03; [3]
  Kd: 103 nM

## PKRSVMLIG
HLA-A*24:02; [4]
  IC50: 38400 nM

## LSIPATLFVW
HLA-B*53:01; [5]
  Kd: 92.8 nM

## FTVHADTGCA
HLA-A*68:02; [6]
  Kd: 134 nM

## PPVNDLKYSW
HLA-B*53:01; [6]
  Kd: 96.8 nM

## LLVQRVTSV
HLA-B*15:03; source organism: Vaccinia virus Copenhagen
  Kd: 285 nM

## LWFNYLFGG
HLA-A*24:02; source organism: Variola virus
  IC50: 57800 nM

## RSRWSRKMLM
HLA-B*07:02; [7]
  Kd: 154 nM

## LETRTETWM
HLA-B*40:01; [3]
  Kd: 253 nM

## TAYGVLFSGV
HLA-A*68:02; [7]
  Kd: 5.16 nM
HLA-A*02:06; [7]
  Kd: 1.54 nM
HLA-A*02:03; [7]
  Kd: 16.1 nM

## SKSRRLNLF
HLA-B*15:03; [4]
  Kd: 2.36 nM

## TTGKLIWKV
HLA-A*24:02; [8]
  IC50: 62700 nM
HLA-A*02:01
  IC50: 1240 nM

## TIAVSMANI
HLA-A*68:02; [3]
  Kd: 34.2 nM

## QVFGAIYGA
HLA-A*68:02; [3]
  Kd: 1.97 nM

## PSATKRWGF
HLA-A*24:02; [9]
  IC50: 10200 nM

## AENTNTSKS
HLA-A*24:02; [8]
  IC50: ≥ 534000 nM
HLA-A*02:01
  IC50: ≥ 187000 nM

## SECPNERRAW
HLA-B*44:02; [6]
  Kd: 74.7 nM
HLA-B*44:03; [6]
  Kd: 56.5 nM

## MEGVFHTMW
HLA-B*44:02; [6]
  Kd: 17.4 nM
HLA-B*44:03; [6]
  Kd: 2.58 nM

## TEIASLPTYL
HLA-B*40:01; [6]
  Kd: 15 nM
HLA-B*44:02; [6]
  Kd: 34.7 nM
HLA-B*44:03; [6]
  Kd: 222 nM

## QKIWMAPSL
HLA-A*24:02; [8]
  IC50: ≥ 92400 nM
HLA-A*02:01
  IC50: 14500 nM

## LSYGPAFIV
HLA-B*51:01 [1]
  Kd: ≥ 20000 nM

## LEKKITQWL
HLA-B*40:01; [10]
  Kd: 191 nM
HLA-B*44:02; [10]
  Kd: 331 nM

## LEVNNPTPF
HLA-B*15:01
  Kd: 98 nM

## NTSMAMTCI
HLA-A*68:02; [6]
  Kd: 238 nM

## AERIGEPDY
HLA-B*44:02; [11]
  Kd: 203 nM
HLA-B*44:03; [11]
  Kd: 797 nM

## AGIAWIPYF
HLA-A*24:02; [9]
  IC50: 2640 nM

## KKNNRVLCF
HLA-B*15:03; [4]
  Kd: 1.59 nM

## VVIFILLMLV
HLA-A*68:02; [12]
  Kd: 767 nM
HLA-A*02:06; [12]
  Kd: 971 nM

## KEENLVKSM
HLA-B*40:01; [5]
  Kd: 2830 nM

## NTPEGIIPA
HLA-A*68:02; [7]
  Kd: 9.22 nM

## FFPMVTDAW
HLA-A*24:03
  Kd: ≤ 1 nM

## ADMGCVVSW
HLA-A*32:01
  Kd: 415 nM
HLA-B*44:02; source organism: Dengue virus 4 Singapore/8976/1995
  Kd: 10.6 nM

## SEFQIYKKS
HLA-B*44:03; [3]
  Kd: 825 nM

## GTFHTMWHV
HLA-A*68:02; [3]
  Kd: 12.2 nM
HLA-A*02:06; [3]
  Kd: 7.33 nM

## AMKAQFERDL
HLA-A*68:02; source organism: Homo sapiens
  Kd: ≥ 60000 nM

## EPHWIAASI
HLA-B*53:01; [7]
  Kd: 333 nM
HLA-B*07:02; [7]
  Kd: 267 nM
HLA-B*51:01 [2]; [7]
  Kd: 172 nM

## IPMTGPLVA
HLA-B*07:02; [3]
  Kd: 50.7 nM

## IFVIDNVHTW
HLA-B*53:01; [6]
  Kd: 500 nM

## FSRGNSLSGV
HLA-B*51:01 [2]; [3]
  Kd: 11100 nM

## SLIKYKKTLL
HLA-A*68:02; source organism: Homo sapiens
  Kd: 649 nM

## LTAIANQATV
HLA-A*68:02; [3]
  Kd: 18.8 nM

## SLIEVKTCLW
HLA-B*44:03; [6]
  Kd: 2330 nM

## SPGTSGSPII
HLA-B*07:02; source organism: Dengue virus 2 16681-PDK53
  Kd: 132 nM

## MAEIPLQWI
HLA-B*51:01 [2]; [12]
  Kd: 3430 nM

## GLYKQPGVPV
HLA-A*68:02; [13]
  Kd: ≥ 5000 nM
HLA-A*02:06; [13]
  Kd: 804 nM
HLA-A*02:03; [13]
  Kd: 23.8 nM
HLA-A*02:02
  Kd: 1400 nM

## FSLGVLGMAL
HLA-A*02:06; [3]
  Kd: 3.5 nM
HLA-B*51:01 [2]; [3]
  Kd: 3860 nM
